Paper PMC8633023, “Crystal structures of phosphatidyl serine synthase PSS reveal the catalytic mechanism of CDP-DAG alcohol O-phosphatidyl transferases” (Nature Communications, 2021)

Legend:
[1] = biological target: T1, MjPSS (phosphatidyl serine synthase, PS synthase) (Methanocaldococcus jannaschii, UniProt Q58609); test: activity measured as a function of citrate; crystal structure ([…] Å); assay type: biochemical; details: reversible; reversed by more serine, blocks or competes with serine; structural site near Asn109, Lys111, Lys157, called non-specific by authors
T1 construct: gene pssA; tag used for MST labelling), E. coli C41(DE3) membranes, solubilised in decyl maltoside; dimer

[2] = biological target: T1, MjPSS (phosphatidyl serine synthase, PS synthase); test: X-ray crystal structure (SeMet protein, […] Å); MST also shows binding; details: open state with CDP-DAG, Ca2+, Mg2+; Ser1 catalytic site, Ser2 judged artefact; in 7POW covalent to CDP-DAG in one protomer
[3] = substrate: N[C@@H](CO)C(=O)O; test: purified protein; details: co-substrate CDP-DAG, co-purified Mg2+ and Ca2+, 50 mM Tris-HCl pH 7.0, 50 mM NaCl, 0.2% DM, temperature of this assay not given
[4] = biological target: the molecule itself; test: crystal structure; crystals grown in meso (lipidic cubic / sponge phase, monoolein with 2% (w/w) CDP-DAG), 292 K; two molecules in the asymmetric unit

Molecule: O=C(O)CC(O)(CC(=O)O)C(=O)O [citrate]
- inhibition [1]: binding of citrate reversibly inhibits MjPSS, and that the inhibition is reversed by addition of more serine

Molecule: N[C@@H](CO)C(=O)O [L-serine]
- X-ray crystal structure (SeMet protein, 1.85 Å); MST also shows binding [2]: 7B1L for the open state with CDP-DAG and two serines

B1: MjPSS (phosphatidyl serine synthase, PS synthase) (Methanocaldococcus jannaschii DSM 2661) (protein)
chain: MFSIRKIITISDYVTMLNIITGLLAILLNSFSLIYLSIIFDSLDGYVARKTGTVSDFGAELDSISDVVSFGVAPAYLLYNNFESNLALISAIIFCLCGALRLARFGILNVKGFIGLPIPAGALLLVGFCQLINSYLINSILAILIGLLMISDIKYPKYPNKIFIYIFAVSLCLAIVGIPHFALMLCLIYAIYGIIKYIRGD
- Km [3]: 460 ± 120 µM
- kcat [3]: 0.123 ± 0.007 s⁻¹

B2: phosphatidyl serine synthase from Methanocaldococcus jannaschii (native MjPSS) (enzyme)
chain: B1 chain
notes: phosphatidyl serine synthase (CDP-DAG alcohol O-phosphatidyl transferase, EC 2.7.8.8) of Methanocaldococcus jannaschii; the vector pSKB2LNB adds an N-terminal His6-Tag and a PreScission site; 400 protein residues are modelled for the two protomers; also called PS synthase; wild-type MjPSS; source: E. coli C41-(DE3), purified from membranes (DM-solubilised, Co2+ chelating Sepharose, size-exclusion …)
- stoichiometry N [4]: 2

B3: Seleno-methionine (SeMet) MjPSS (enzyme, Methanocaldococcus jannaschii)
chain: B1 chain
modifications: selenomethionine in place of methionine
notes: phosphatidyl serine synthase (CDP-DAG alcohol O-phosphatidyl transferase, EC 2.7.8.8) of Methanocaldococcus jannaschii; same construct as m1, SeMet substituted; Same construct as m1; also called SeMet-labelled protein; SeMet substituted protein; source: E. coli, M9 minimal medium with SeMet, IPTG-induced; purified as native MjPSS (final SEC on Superdex 200 Increase)
- stoichiometry N [4]: 2
